Changes are numbered by the printed parent chain. Numbers in names are those of the source.
B1: DnaD, wild type, purified (natural protein, B. subtilis, UniProt P39787 1-232, looked up)
chain: MKKQQFIDMQEQGTSTIPNLLLTHYKQLGLNETELILLLKIKMHLEKGSYFPTPNQLQEGMSISVEECTNRLRMFIQKGFLFIEECEDQNGIKFEKYSLQPLWGKLYEYIQLAQNQTQERKAEGEQKSLYTIFEEEFARPLSPLECETLAIWQDQDQHDAQLIKHALKEAVLSGKLSFRYIDRILFEWKKNGLKTVEQAKIHSQKFRRVQAKQNEPQKEYKRQVPFYNWLEQ
notes: DnaD, Bacillus subtilis, the full-length protein; tetramer of about 113 kDa by SEC-MALS (theoretical 110 kDa); also called wild-type DnaD; wild-type tetrameric DnaD
B2: DnaD^F6A, purified (natural protein, B. subtilis, UniProt P39787 1-232, looked up)
chain: B1 chain with F6A
notes: DnaD, Bacillus subtilis, with F6A; eluted as a 57 kDa species (dimer); The measured mass fits the whole protein
B3: DnaD^K3A (natural protein, B. subtilis, UniProt P39787 1-232, looked up)
chain: B1 chain with K3A
notes: DnaD, Bacillus subtilis, with K3A, used in BS^3 cross-linking
B4: DnaD^1-205, purified (domain or fragment, B. subtilis, UniProt P39787 1-205, looked up)
chain: MKKQQFIDMQEQGTSTIPNLLLTHYKQLGLNETELILLLKIKMHLEKGSYFPTPNQLQEGMSISVEECTNRLRMFIQKGFLFIEECEDQNGIKFEKYSLQPLWGKLYEYIQLAQNQTQERKAEGEQKSLYTIFEEEFARPLSPLECETLAIWQDQDQHDAQLIKHALKEAVLSGKLSFRYIDRILFEWKKNGLKTVEQAKIHSQK
notes: also called DnaD variant lacking the C-terminal tail

Assays:
[1] = molecular target: the molecule itself; assay: SEC-MALS; purified DnaD variants, size exclusion chromatography followed by multiple angle light scattering
[2] = molecular target: the molecule itself; assay: cross-linking; amine-specific BS^3, SDS-PAGE, immunoblot

| Protein | stoichiometry N [1] | stoichiometry N [2] |
| --- | --- | --- |
| B1 | 4 | – |
| B2 | 2 | – |
| B3 | – | 2 |
| B4 | 4 | – |
